The source of these data is patent US20160347802A1.

In one assay the target is Islr2, AVEXIS protein. Kind of assay: method not stated; the filers' own unpublished determination ('in preparation'), used to calibrate the AVEXIS screen.
In assay [1] the target is human DRAXIN 21 amino acid Netrin binding fragment, AVEXIS prey or bait protein (human). Briefly: AVEXIS, prey on bait DRAXIN 21aa; white = No binding.
For assay [2], the target named is human Netrin-4, AVEXIS protein (human) (UniProt Q9HB63). Kind of assay: AVEXIS, prey on bait NTN4; white = No binding.
human Netrin-4, AVEXIS protein (human), sequence (Q9HB63 19-628): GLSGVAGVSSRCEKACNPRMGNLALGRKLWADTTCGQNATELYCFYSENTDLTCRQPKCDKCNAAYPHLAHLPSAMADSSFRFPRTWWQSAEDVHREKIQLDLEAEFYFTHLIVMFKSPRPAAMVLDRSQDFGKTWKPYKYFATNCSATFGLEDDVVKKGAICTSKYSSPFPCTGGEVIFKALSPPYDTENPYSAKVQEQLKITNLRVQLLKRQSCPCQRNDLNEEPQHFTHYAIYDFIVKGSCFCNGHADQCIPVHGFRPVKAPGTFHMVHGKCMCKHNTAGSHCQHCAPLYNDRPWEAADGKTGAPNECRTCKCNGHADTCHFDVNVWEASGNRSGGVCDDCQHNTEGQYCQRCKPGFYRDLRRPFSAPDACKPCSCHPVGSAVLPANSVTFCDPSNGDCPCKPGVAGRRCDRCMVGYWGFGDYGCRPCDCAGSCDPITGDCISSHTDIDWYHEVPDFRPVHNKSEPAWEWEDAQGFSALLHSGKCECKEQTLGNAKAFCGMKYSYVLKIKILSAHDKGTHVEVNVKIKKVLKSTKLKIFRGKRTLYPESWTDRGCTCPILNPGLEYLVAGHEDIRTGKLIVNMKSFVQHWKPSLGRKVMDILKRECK
Assay [3] concerns the target biotinylated recombinant human DCC (human) (UniProt P43146). Briefly: AVEXIS, prey on bait DCC; white = No binding.
Assay [4] deals with Matn4 ECD, mono-biotinylated bait protein (positive control). Briefly: AVEXIS, prey on bait Matn4 (+), positive control for the prey; dark = Binding.
Assay [5] concerns the target biotinylated recombinant human UNC5B (human) (UniProt Q8IZJ1). Kind of assay: AVEXIS, prey on bait UNC5B; white = No binding.
Assay [6] concerns the target human DRAXIN, AVEXIS prey or bait protein (human) (UniProt Q8NBI3). Briefly: AVEXIS, prey on bait DRAXIN; white = No binding.
Assay [7] deals with human Netrin-G2, AVEXIS protein (human) (UniProt Q96CW9). Briefly: AVEXIS, prey on bait NTNG2; white = No binding.
human Netrin-G2, AVEXIS protein (human), sequence (Q96CW9 18-507): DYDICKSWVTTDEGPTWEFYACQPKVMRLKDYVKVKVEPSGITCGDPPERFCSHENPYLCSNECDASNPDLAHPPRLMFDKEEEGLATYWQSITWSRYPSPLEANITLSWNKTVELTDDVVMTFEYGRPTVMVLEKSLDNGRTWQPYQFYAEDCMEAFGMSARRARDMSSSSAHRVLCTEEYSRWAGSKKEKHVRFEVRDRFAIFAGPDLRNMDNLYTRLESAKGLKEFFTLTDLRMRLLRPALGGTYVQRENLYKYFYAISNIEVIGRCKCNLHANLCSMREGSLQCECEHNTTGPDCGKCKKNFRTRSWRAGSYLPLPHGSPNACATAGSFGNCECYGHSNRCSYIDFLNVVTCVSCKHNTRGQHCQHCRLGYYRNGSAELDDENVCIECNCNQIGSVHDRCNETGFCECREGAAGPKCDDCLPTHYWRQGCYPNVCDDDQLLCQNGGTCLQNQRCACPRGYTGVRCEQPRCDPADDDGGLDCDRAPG
Assay [8] has as its target human Netrin-G1, AVEXIS protein (human) (UniProt Q9Y2I2). Kind of assay: AVEXIS, prey on bait NTNG1; white = No binding.
For assay [9], the target named is human Netrin1, recombinant AVEXIS protein (biotinylated when immobilised) (human) (UniProt O95631). Briefly: AVEXIS, prey on bait NTN1; dark = Binding.
The target in assay [10] is human Netrin-3, AVEXIS protein (human) (UniProt O00634). Kind of assay: AVEXIS, prey on bait NTN3; white = No binding.
human Netrin-3, AVEXIS protein (human), sequence (O00634 28-580): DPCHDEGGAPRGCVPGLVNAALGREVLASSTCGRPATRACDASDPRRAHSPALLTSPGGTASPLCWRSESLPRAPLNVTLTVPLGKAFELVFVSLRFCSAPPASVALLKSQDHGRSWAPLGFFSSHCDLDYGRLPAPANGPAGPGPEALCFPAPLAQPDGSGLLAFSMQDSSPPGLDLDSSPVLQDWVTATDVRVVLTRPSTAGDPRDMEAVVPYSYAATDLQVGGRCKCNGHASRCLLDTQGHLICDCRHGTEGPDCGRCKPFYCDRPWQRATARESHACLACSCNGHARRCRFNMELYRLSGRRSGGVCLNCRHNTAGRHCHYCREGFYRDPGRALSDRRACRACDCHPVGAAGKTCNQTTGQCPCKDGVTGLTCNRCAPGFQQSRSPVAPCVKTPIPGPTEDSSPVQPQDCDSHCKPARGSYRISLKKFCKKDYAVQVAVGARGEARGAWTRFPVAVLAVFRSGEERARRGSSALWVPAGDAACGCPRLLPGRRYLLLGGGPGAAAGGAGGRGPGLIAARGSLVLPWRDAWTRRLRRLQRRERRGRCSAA
Assay [11] has as its target zebrafish Netrin1a, AVEXIS bait or prey protein (zebrafish). Kind of assay: AVEXIS, prey on bait zNetrin1a, upper value; grey = Weak binding.
Assay [12] has the same target. Kind of assay: AVEXIS, prey on bait zNetrin1a, lower value; grey = Weak binding.
In assay [13] the target is zebrafish DraxinB, AVEXIS protein (zebrafish). Kind of assay: AVEXIS, prey on bait zDraxinB, upper value; black = Binding.
The target in assay [14] is zebrafish Netrin1a, AVEXIS bait or prey protein (zebrafish). Briefly: AVEXIS, prey on bait zNetrin1a, upper value; white = No binding.
The target in assay [15] is zebrafish DraxinB, AVEXIS protein (zebrafish). Kind of assay: AVEXIS, prey on bait zDraxinB, lower value; black = Binding.
Assay [16] deals with zebrafish DraxinA, AVEXIS prey or bait protein (zebrafish) (UniProt Q4V9H3). Kind of assay: AVEXIS, prey on bait zDraxinA, upper value; black = Binding.
zebrafish DraxinA, AVEXIS prey or bait protein (zebrafish), sequence (Q4V9H3 other isoform, or with tags, fused parts or gaps): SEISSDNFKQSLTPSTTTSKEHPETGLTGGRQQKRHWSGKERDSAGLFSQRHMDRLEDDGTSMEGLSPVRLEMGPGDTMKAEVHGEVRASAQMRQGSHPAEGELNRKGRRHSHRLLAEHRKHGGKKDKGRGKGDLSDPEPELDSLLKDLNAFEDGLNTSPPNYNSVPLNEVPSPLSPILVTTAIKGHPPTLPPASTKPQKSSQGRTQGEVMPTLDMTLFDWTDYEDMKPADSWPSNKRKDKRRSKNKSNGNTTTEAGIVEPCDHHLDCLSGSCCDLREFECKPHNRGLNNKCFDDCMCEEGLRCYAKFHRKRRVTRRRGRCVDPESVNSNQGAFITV
Assay [17] has the same target. Kind of assay: AVEXIS, prey on bait zDraxinA, lower value; black = Binding.
Assay [18] concerns the target zebrafish Netrin1a, AVEXIS bait or prey protein (zebrafish). Kind of assay: AVEXIS, prey on bait zNetrin1a, lower value; white = No binding.
Assay [19] addresses human Netrin1, recombinant AVEXIS protein (biotinylated when immobilised) (human) (UniProt O95631). Kind of assay: AVEXIS, prey on bait hNETRIN1, lower value; white = No binding.
In assay [20] the target is human DRAXIN, AVEXIS prey or bait protein (human) (UniProt Q8NBI3). Kind of assay: AVEXIS, prey on bait hDRAXIN, upper value; black = Binding.
human DRAXIN, AVEXIS prey or bait protein (human), sequence (Q8NBI3 26-349): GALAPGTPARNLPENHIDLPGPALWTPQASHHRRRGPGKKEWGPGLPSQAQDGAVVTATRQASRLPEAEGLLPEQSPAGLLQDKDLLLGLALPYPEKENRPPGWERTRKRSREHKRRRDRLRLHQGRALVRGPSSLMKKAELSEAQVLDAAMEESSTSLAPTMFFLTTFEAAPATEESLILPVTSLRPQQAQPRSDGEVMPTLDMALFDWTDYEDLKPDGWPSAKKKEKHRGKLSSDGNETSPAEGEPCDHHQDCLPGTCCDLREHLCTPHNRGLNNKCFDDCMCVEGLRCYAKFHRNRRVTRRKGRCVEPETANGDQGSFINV
The target of assay [21] is human Netrin1, recombinant AVEXIS protein (biotinylated when immobilised) (human) (UniProt O95631). Kind of assay: AVEXIS, prey on bait hNETRIN1, upper value; white = No binding.
The target in assay [22] is human DRAXIN, AVEXIS prey or bait protein (human) (UniProt Q8NBI3). Kind of assay: AVEXIS, prey on bait hDRAXIN, lower value; black = Binding.

pKd: −log10 of the molar value.

human Netrin-G1, AVEXIS protein (human), sequence (Q9Y2I2 29-510): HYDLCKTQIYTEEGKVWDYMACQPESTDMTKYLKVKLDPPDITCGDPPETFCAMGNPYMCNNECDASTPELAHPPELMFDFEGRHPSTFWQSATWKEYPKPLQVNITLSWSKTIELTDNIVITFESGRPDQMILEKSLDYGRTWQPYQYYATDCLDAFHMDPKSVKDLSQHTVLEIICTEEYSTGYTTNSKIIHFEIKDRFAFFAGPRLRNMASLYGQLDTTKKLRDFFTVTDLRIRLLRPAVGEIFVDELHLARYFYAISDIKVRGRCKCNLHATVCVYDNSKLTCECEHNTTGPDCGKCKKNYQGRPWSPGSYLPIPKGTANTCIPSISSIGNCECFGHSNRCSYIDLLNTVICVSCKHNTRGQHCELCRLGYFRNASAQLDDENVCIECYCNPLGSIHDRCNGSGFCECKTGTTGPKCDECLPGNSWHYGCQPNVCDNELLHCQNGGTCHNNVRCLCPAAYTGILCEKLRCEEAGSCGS
human Netrin-3, AVEXIS protein, O00634 28-580 (ligand; other documents disagree on this pair), sequence (O00634 28-580): as the sequence (O00634 28-580) above
human DRAXIN 21 amino acid Netrin binding fragment, AVEXIS prey or bait protein (human), sequence (peptide, as listed by the source): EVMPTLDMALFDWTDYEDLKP

By pKd is commonly meant −log10 of the Kd, conventionally taken in molar units. For Vasn (Slit-like2), AVEXIS protein, in the assay with Islr2, AVEXIS protein, the pKd is 4.92 and the half-life (t½) is 0.16 s.

“biotinylated recombinant human DCC (from UniProt P43146 26-1097) (receptor)”: the A486nm came to 0.062 in assay [1]; 0.064 in [2]; 0.065 in assay [3]; 0.278 in assay [4]; 0.062 in assay [5]; 0.064 in [6]. Moreover, the A486nm in assay [7] was determined as 0.061; in assay [8], 0.065; in [9], 0.377; in [10], 0.076.

Turning to “biotinylated recombinant human UNC5B (from UniProt Q8IZJ1 27-377) (receptor)”, in assay [3], the A486nm was 0.064.

“human Netrin-3, AVEXIS protein (from UniProt O00634 28-580) (ligand)”: in assay [3], the A486nm is 0.067.

Turning to “human Netrin-3, AVEXIS protein, O00634 28-580 (ligand; other documents disagree on this pair)”, the A486nm in assay [5] came out at 0.066.

With “zebrafish DraxinB, AVEXIS protein (ligand)”, the A486nm in assay [11] is 0.103; in assay [12], 0.084.

“zebrafish Netrin1a, AVEXIS bait or prey protein (ligand)”: the A486nm in assay [13] came out at 0.235; in assay [14], 0.064; in assay [15], 0.174; in assay [16], 0.323; in assay [17] it was 0.276; in assay [18] it was 0.063. Moreover, the A486nm in [19] is 0.059; in assay [20], 0.136; in assay [21] it was 0.064; in [22], 0.249.
